Experimental data as given in the supplement of paper PMC10567573.

B1: SMG5 (parent)
chain: TNPDLIIVCAQSSQSLWNRLSVLL

Variants of: B1
Assay: protein stability index of a GFP-peptide fusion (GPS, HEK-293T) (PSI 1-6); higher = more stable
Settings: c terminus: a fixed tail appended
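Also: lentivirally expressed fusions sorted by FACS into six bins by GFP to DsRed ratio, PSI derived from sequencing read proportions per bin multiplied by bin number.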

Row | Variant | protein stability index
1 | TNPDLIIVCAQSSQGLWNRLSVLL [S15G] | 2.9
2 | TNPDLIIVCAQSSQWLWNRLSVLL [S15W] | 1.76
3 | TNPDLIIVCAQSSQRLWNRLSVLL [S15R] | 1.25
4 | TNPDLIIVCAQSSQDLWNRLSVLL [S15D] | 2.19
5 | TNPDLIIVCAQSSQLLWNRLSVLL [S15L] | 2.45
6 | TNPDLIIVCAQSSQALWNRLSVLL [S15A] | 2.62
7 | TNPDLIIVCAQSSQYLWNRLSVLL [S15Y] | 2.49
8 | TNPDLIIVCAQSSQFLWNRLSVLL [S15F] | 4.58
9 | TNPDLIIVCAQSSQQLWNRLSVLL [S15Q] | 2.12
10 | TNPDLIIVCAQSSQPLWNRLSVLL [S15P] | 3.51
11 | TNPDLIIVCAQSSQELWNRLSVLL [S15E] | 2.58
12 | TNPDLIIVCAQSSQTLWNRLSVLL [S15T] | 1.44
13 | TNPDLHIVCAQSSQSLWNRLSVLL [I6H] | 1.66
14 | TNPDLFIVCAQSSQSLWNRLSVLL [I6F] | 2.5
15 | TNPDLVIVCAQSSQSLWNRLSVLL [I6V] | 4.02
16 | TNPDLYIVCAQSSQSLWNRLSVLL [I6Y] | 2.83
17 | TNPDLPIVCAQSSQSLWNRLSVLL [I6P] | 2.57
18 | TNPDLKIVCAQSSQSLWNRLSVLL [I6K] | 2.36
19 | TNPDLWIVCAQSSQSLWNRLSVLL [I6W] | 2.5
20 | TNPDLMIVCAQSSQSLWNRLSVLL [I6M] | 1.93
21 | TNPDLNIVCAQSSQSLWNRLSVLL [I6N] | 2.4
22 | TNPDLRIVCAQSSQSLWNRLSVLL [I6R] | 2.2
23 | TNPDLSIVCAQSSQSLWNRLSVLL [I6S] | 2.87
24 | TNPDLGIVCAQSSQSLWNRLSVLL [I6G] | 2.65

Row | Variant | protein stability index
25 | TNPDLTIVCAQSSQSLWNRLSVLL [I6T] | 1.79
26 | TNPDLLIVCAQSSQSLWNRLSVLL [I6L] | 2.64
27 | TNPDLQIVCAQSSQSLWNRLSVLL [I6Q] | 3.05
28 | TNPDLIIVCAQSQQSLWNRLSVLL [S13Q] | 1.83
29 | TNPDLIIVCAQSHQSLWNRLSVLL [S13H] | 1.53
30 | TNPDLIIVCAQSFQSLWNRLSVLL [S13F] | 1.49
31 | TNPDLIIVCAQSCQSLWNRLSVLL [S13C] | 2.21
32 | TNPDLIIVCAQSEQSLWNRLSVLL [S13E] | 1.57
33 | TNPDLIIVCAQSNQSLWNRLSVLL [S13N] | 2.7
34 | TNPDLIIVCAQSLQSLWNRLSVLL [S13L] | 2.97
35 | TNPDLIIVCAQSGQSLWNRLSVLL [S13G] | 2.42
36 | TNPDLIIVCAQSPQSLWNRLSVLL [S13P] | 3.21
37 | TNPDLIIVCAQSRQSLWNRLSVLL [S13R] | 1.36
38 | TNPDLIIVCAQSWQSLWNRLSVLL [S13W] | 1.55
39 | TNPDLIIVCAQSDQSLWNRLSVLL [S13D] | 1.59
40 | TNPDLIIVCAQSKQSLWNRLSVLL [S13K] | 2.48
41 | TNPDLIIVCAQSAQSLWNRLSVLL [S13A] | 1.16
42 | TNPDLIIVCAQSMQSLWNRLSVLL [S13M] | 2
43 | TNPDLIIVCAQSVQSLWNRLSVLL [S13V] | 1.88
44 | TNPDLIIVCAQSIQSLWNRLSVLL [S13I] | 1.41
45 | TNPDLIIVCAQSTQSLWNRLSVLL [S13T] | 3.23
46 | TNPDLIIVCAQSYQSLWNRLSVLL [S13Y] | 3.59
47 | TNPDLIIVCAVSSQSLWNRLSVLL [Q11V] | 3.29
48 | TNPDLIIVCANSSQSLWNRLSVLL [Q11N] | 2

Row | Variant | protein stability index
49 | TNPDLIIVCAWSSQSLWNRLSVLL [Q11W] | 1.54
50 | TNPDLIIVCAYSSQSLWNRLSVLL [Q11Y] | 4.08
51 | TNPDLIIVCAPSSQSLWNRLSVLL [Q11P] | 3.62
52 | TNPDLIIVCAKSSQSLWNRLSVLL [Q11K] | 2.89
53 | TNPDLIIVCACSSQSLWNRLSVLL [Q11C] | 3.76
54 | TNPDLIIVCADSSQSLWNRLSVLL [Q11D] | 3.08
55 | TNPDLIIVCAESSQSLWNRLSVLL [Q11E] | 1.32
56 | TNPDLIIVCATSSQSLWNRLSVLL [Q11T] | 3.57
57 | TNPDLIIVCALSSQSLWNRLSVLL [Q11L] | 3.05
58 | TNPDLIIVCAGSSQSLWNRLSVLL [Q11G] | 2.09
59 | TNPDLIIVCARSSQSLWNRLSVLL [Q11R] | 2.19
60 | TNPDLIIVCAFSSQSLWNRLSVLL [Q11F] | 1.67
61 | TNPDLIIVCAMSSQSLWNRLSVLL [Q11M] | 2.81
62 | TNPDLIIVCAQSSPSLWNRLSVLL [Q14P] | 2.09
63 | TNPDLIIVCAQSSNSLWNRLSVLL [Q14N] | 2.81
64 | TNPDLIIVCAQSSESLWNRLSVLL [Q14E] | 1.6
65 | TNPDLIIVCAQSSVSLWNRLSVLL [Q14V] | 3.03
66 | TNPDLIIVCAQSSYSLWNRLSVLL [Q14Y] | 3.2
67 | TNPDLIIVCAQSSGSLWNRLSVLL [Q14G] | 2.23
68 | TNPDLIIVCAQSSSSLWNRLSVLL [Q14S] | 2.68
69 | TNPDLIIVCAQSSTSLWNRLSVLL [Q14T] | 3.58
70 | TNPDLIIVCAQSSASLWNRLSVLL [Q14A] | 3.98
71 | TNPDLIIVCAQSSKSLWNRLSVLL [Q14K] | 3.23
72 | TNPDLIIVCAQSSDSLWNRLSVLL [Q14D] | 3.38

Row | Variant | protein stability index
73 | TNPDLIIVCAQSSLSLWNRLSVLL [Q14L] | 1.6
74 | TNPDLIIVCAQSSRSLWNRLSVLL [Q14R] | 2.73
75 | TNPDLIIVCAQSSMSLWNRLSVLL [Q14M] | 2.22
76 | TNPDLIIVDAQSSQSLWNRLSVLL [C9D] | 2.29
77 | TNPDLIIVNAQSSQSLWNRLSVLL [C9N] | 2.35
78 | TNPDLIIVYAQSSQSLWNRLSVLL [C9Y] | 1.56
79 | TNPDLIIVLAQSSQSLWNRLSVLL [C9L] | 3.72
80 | TNPDLIIVMAQSSQSLWNRLSVLL [C9M] | 1.76
81 | TNPDLIIVVAQSSQSLWNRLSVLL [C9V] | 2.69
82 | TNPDLIIVTAQSSQSLWNRLSVLL [C9T] | 1.95
83 | TNPDLIIVSAQSSQSLWNRLSVLL [C9S] | 3.03
84 | TNPDLIIVHAQSSQSLWNRLSVLL [C9H] | 1.64
85 | TNPDLIIVIAQSSQSLWNRLSVLL [C9I] | 2.72
86 | TNPDLIIVAAQSSQSLWNRLSVLL [C9A] | 2.28
87 | TNPDLIIVGAQSSQSLWNRLSVLL [C9G] | 1.45
88 | TNPDLIIVKAQSSQSLWNRLSVLL [C9K] | 1.98
89 | TNPDLIIVRAQSSQSLWNRLSVLL [C9R] | 2.12
90 | TNPDLIIVQAQSSQSLWNRLSVLL [C9Q] | 2.09
91 | TNPDLIIVEAQSSQSLWNRLSVLL [C9E] | 1.72
92 | TNPDLIIVFAQSSQSLWNRLSVLL [C9F] | 2.64
93 | TNPDLIIVPAQSSQSLWNRLSVLL [C9P] | 1.92
94 | TNPDLIIVWAQSSQSLWNRLSVLL [C9W] | 3.33
